Here are results for 1 protein from FireProtDB (doi:10.1021/bi962163z).

The conditions of the data set: Homo sapiens, Thermal, DSC, reversible: no, whole UniProt chain shown.

B1: Annexin A5 wild type, P08758 (protein)
chain: MAQVLRGTVTDFPGFDERADAETLRKAMKGLGTDEESILTLLTSRSNAQRQEISAAFKTLFGRDLLDDLKSELTGKFEKLIVALMKPSRLYDAYELKHALKGAGTNEKVLTEIIASRTPEELRAIKQVYEEEYGSSLEDDVVGDTSGYYQRMLVVLLQANRDPDAGIDEAQVEQDAQALFQAGELKWGTDEEKFITIFGTRSVSHLRKVFDKYMTISGFQIEETIDRETSGNLEQLLLAVVKSIRSIPAYLAETLYYAMKGAGTDDHTLIRVMVSRSEIDLFNIRKEFRKNFATSLYSMIKGDTSGDYKKALLLLCGEDD
For orientation: Tm means the temperature at which the thermal transition is half complete. On to B1, for which the Tm runs as follows: (pH 4, Sodium phosphate 20 mM) 40.6 °C; (pH 6, Sodium phosphate 20 mM) 50.5 °C; (pH 7, Sodium phosphate 20 mM) 53.4 °C; (pH 8, Sodium phosphate 20 mM) 54.4 °C; (pH 8, Tris 50 mM, KCl 100 mM) 52.5 °C. Further, the “unfolding enthalpy (calorimetric)” value (pH 4, Sodium phosphate 20 mM) is 128 kcal/mol; the “unfolding enthalpy (calorimetric)” value (pH 6, Sodium phosphate 20 mM) came out at 147 kcal/mol; the “unfolding enthalpy (calorimetric)” value (pH 7, Sodium phosphate 20 mM) is 163 kcal/mol; the “unfolding enthalpy (calorimetric)” value (pH 8, Sodium phosphate 20 mM) turned out to be 162 kcal/mol; the “unfolding enthalpy (calorimetric)” value (pH 8, Tris 50 mM, KCl 100 mM) amounted to 163 kcal/mol. For the same protein, the “unfolding enthalpy (van 't Hoff)” value (pH 4, Sodium phosphate 20 mM) came to 151 kcal/mol; the “unfolding enthalpy (van 't Hoff)” value (pH 6, Sodium phosphate 20 mM) amounted to 174 kcal/mol; the “unfolding enthalpy (van 't Hoff)” value (pH 7, Sodium phosphate 20 mM) turned out to be 189 kcal/mol; the “unfolding enthalpy (van 't Hoff)” value (pH 8, Sodium phosphate 20 mM) was 199 kcal/mol; the “unfolding enthalpy (van 't Hoff)” value (pH 8, Tris 50 mM, KCl 100 mM) amounted to 190 kcal/mol.
